Experimental data from paper PMC3024409, “Protein-Protein Interactions within Late Pre-40S Ribosomes” (PLoS ONE, 2011).
Values belong to the binder of their own block, whether it stands above or below them.

B1: Ltv1 (untagged) (natural protein, S. cerevisiae, UniProt P34078 1-463, looked up)
chain: MSKKFSSKNSQRYVVVHRPHDDPSFYDTDASAHVLVPVSNPNKTSPEADLRKKDVSSTKPKGRRAHVGEAALYGINFDDSEYDYTQHLKPIGLDPENSIFIASKGNEQKVEKKNIEDLFIEPKYRRDEIEKDDALPVFQRGMAKPEYLLHQQDTTDEIRGFKPDMNPALREVLEALEDEAYVVNDDVVVEDISKKTQLQGDNYGEEEKEDDIFAQLLGSGEAKDEDEFEDEFDEWDIDNVENFEDENYVKEMAQFDNIENLEDLENIDYQADVRRFQKDNSILEKHNSDDEFSNAGLDSVNPSEEEDVLGELPSIQDKSKTGKKKRKSRQKKGAMSDVSGFSMSSSAIARTETMTVLDDQYDQIINGYENYEEELEEDEEQNYQPFDMSAERSDFESMLDDFLDNYELESGGRKLAKKDKEIERLKEAADEVSKGKLSQRRNRERQEKKKLEKVTNTLSSLKF
notes: Ltv1, S. cerevisiae; gene amplified from genomic DNA with primers from the start codon to the stop codon, cloned between SfoI and BamHI of pSV272; also called export adaptor Ltv1; source: E. coli Rosetta, purified (Ni-NTA, TEV cleavage, MonoQ, gel filtration); not shown: His6-MBP, N-terminal, cleaved
B4: Rio2 (untagged) (enzyme, S. cerevisiae, UniProt P40160 1-425, looked up)
chain: MKLDTSHMRYLTTDDFRVLQAVEQGSRSHEVVPTPLIHQISGMRSQSGTNRAISDLAKLSLISKMRNVKYDGYRLTYNGIDYLALKTMLNRDTVYSVGNTIGVGKESDIYKVSDKNGNPRVMKIHRLGRTSFHSVRNNRDYLKKSNQGANWMHLSRLAANKEYQFMSMLYSKGFKVPEPFDNSRHIVVMELIEGYPMRRLRKHKNIPKLYSDLMCFIVDLANSGLIHCDFNEFNIMIKDKLEDENDCGFVVIDFPQCISIQHQDADYYFQRDVDCIRRFFKKKLKYEPKPDSSMLDTEGFGDGYKYAYPDFKRDVKRTDNLDELVQASGFSKKHPGDRGLETAVESMRNAVYNSDDDMSNDEAEEENGEGDYSEEDEYYDSELDNESSEDDSEDAQEEENERIIEALSSGVENLKMDKLGNYILE
notes: Rio2, S. cerevisiae; Cloning into the NheI site of pET23a may leave a few vector residues before the first methionine; also called kinase Rio2; protein kinase Rio2; source: E. coli Rosetta, purified (Hi-Trap Q, MonoQ, gel filtration)

Assays:
Experiment in all cases: pull-down; 3 µM MBP-tagged bait and 5 µM untagged prey in 50 mM HEPES pH 7.5, 150 mM KCl; 10 min at room temperature, 1 h at 4°C with amylose resin; washed, eluted with 20 mM maltose; SDS-PAGE, Coomassie
Conditions in all cases: both partners purified
(MBP-)Enp1 = biological target: T1, (MBP-)Enp1 (S. cerevisiae, UniProt P38333 1-483)
T1 construct: Enp1, S. cerevisiae; gene amplified from genomic DNA, cloned between SfoI and BamHI of pSV272; source: E. coli Rosetta, purified (Ni-NTA, MonoQ, gel filtration); not shown: His6-MBP, N-terminal, kept
T1 sequence (looked up): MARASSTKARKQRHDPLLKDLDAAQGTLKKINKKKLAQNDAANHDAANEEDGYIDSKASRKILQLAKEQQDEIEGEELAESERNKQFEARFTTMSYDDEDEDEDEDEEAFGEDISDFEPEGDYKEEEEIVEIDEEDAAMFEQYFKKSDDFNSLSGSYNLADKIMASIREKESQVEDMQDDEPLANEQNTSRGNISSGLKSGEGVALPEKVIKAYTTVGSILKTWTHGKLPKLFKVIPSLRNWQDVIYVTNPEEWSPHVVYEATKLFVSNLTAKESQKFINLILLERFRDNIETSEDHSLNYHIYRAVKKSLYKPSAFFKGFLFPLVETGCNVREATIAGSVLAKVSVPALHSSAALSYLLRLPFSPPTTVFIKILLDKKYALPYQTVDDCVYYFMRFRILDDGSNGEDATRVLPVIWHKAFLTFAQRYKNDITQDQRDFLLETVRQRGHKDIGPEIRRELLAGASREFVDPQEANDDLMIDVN

Enp1 (untagged) = biological target: T2, Enp1 (untagged) (S. cerevisiae, UniProt P38333 1-483)
T2 construct: Enp1, S. cerevisiae; gene amplified from genomic DNA, cloned between SfoI and BamHI of pSV272; source: E. coli Rosetta, purified (Ni-NTA, TEV cleavage, MonoQ, gel filtration); not shown: His6-MBP, N-terminal, cleaved
T2 sequence (looked up): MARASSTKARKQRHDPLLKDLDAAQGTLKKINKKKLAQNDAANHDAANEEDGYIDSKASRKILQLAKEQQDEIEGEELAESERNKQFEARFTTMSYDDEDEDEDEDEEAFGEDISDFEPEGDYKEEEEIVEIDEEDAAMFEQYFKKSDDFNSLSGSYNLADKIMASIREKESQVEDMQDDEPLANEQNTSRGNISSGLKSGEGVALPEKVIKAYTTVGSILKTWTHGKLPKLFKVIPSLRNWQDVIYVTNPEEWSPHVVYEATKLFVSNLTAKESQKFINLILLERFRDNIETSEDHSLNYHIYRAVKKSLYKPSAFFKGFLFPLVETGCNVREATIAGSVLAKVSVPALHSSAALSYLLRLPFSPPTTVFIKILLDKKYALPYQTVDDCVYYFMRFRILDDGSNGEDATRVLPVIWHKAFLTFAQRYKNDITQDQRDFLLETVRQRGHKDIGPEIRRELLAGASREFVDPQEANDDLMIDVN

Ltv1 (untagged) = biological target: B1
Rio2 (untagged) = biological target: B4
(MBP-)Tsr1 = biological target: T3, (MBP-)Tsr1 (S. cerevisiae, UniProt Q07381 1-788)
T3 construct: Tsr1, S. cerevisiae; gene amplified from genomic DNA with primers from the start codon to the stop codon, cloned between SfoI and HindIII of pSV272; source: E. coli Rosetta, purified (Ni-NTA, MonoQ, gel filtration; TEV protease omitted); not shown: His6-MBP, N-terminal, kept
T3 sequence (looked up): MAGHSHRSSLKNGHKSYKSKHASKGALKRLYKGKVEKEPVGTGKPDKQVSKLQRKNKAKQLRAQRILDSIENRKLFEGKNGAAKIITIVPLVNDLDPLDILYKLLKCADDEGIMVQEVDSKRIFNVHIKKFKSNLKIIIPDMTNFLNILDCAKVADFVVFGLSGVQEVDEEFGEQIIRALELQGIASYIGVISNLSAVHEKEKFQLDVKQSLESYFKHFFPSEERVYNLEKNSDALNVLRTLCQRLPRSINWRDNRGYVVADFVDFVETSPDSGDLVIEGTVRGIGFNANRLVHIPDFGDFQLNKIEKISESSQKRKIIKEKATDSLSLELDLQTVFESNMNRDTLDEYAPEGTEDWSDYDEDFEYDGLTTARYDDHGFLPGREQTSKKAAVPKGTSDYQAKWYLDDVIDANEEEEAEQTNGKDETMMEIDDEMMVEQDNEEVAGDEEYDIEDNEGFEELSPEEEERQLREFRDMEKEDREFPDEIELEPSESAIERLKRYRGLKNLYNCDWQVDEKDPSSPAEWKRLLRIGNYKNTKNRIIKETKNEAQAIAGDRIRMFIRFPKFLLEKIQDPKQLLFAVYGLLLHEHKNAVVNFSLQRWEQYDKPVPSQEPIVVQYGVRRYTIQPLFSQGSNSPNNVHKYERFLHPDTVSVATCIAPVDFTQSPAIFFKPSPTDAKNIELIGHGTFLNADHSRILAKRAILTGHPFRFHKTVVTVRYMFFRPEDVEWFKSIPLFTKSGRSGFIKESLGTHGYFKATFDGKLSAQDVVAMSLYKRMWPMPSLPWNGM

(MBP-)Rio2 = biological target: T4, (MBP-)Rio2 (S. cerevisiae, UniProt P40160 1-425)
T4 construct: Rio2, S. cerevisiae; gene amplified from genomic DNA with primers from the start codon to the stop codon, cloned between SfoI and BamHI of pSV272; 93 kDa as printed; source: E. coli Rosetta, purified (Ni column, MonoQ, gel filtration); not shown: His6-MBP, N-terminal, kept
T4 sequence (looked up): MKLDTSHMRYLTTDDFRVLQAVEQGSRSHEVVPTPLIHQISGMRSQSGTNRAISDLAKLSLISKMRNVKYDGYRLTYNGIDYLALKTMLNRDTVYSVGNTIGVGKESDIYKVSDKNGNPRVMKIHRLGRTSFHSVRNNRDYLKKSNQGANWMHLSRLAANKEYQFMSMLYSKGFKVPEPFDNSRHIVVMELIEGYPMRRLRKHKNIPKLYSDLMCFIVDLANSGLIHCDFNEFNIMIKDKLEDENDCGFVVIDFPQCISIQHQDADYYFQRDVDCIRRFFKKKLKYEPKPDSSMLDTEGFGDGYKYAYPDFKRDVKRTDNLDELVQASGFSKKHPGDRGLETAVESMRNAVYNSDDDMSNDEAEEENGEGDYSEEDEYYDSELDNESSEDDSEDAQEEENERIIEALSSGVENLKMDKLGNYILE

binding result (Ltv1 (untagged)): binds
binding result (Rio2 (untagged)): binds
B3: (MBP-)Rps15 (natural protein, S. cerevisiae, UniProt Q01855 2-142, looked up)
chain: SQAVNAKKRVFKTHSYRGVDLEKLLEMSTEDFVKLAPARVRRRFARGMTSKPAGFMKKLRAAKLAAPENEKPAPVRTHMRNMIIVPEMIGSVVGIYNGKAFNQVEIRPEMLGHYLGEFSITYTPVRHGRAGATTSRFIPLK
notes: ribosomal protein Rps15, S. cerevisiae; gene amplified from genomic DNA, cloned between SfoI and HindIII of pSV272; source: E. coli Rosetta, purified (Ni-NTA, MonoQ, gel filtration); not shown: His6-MBP, N-terminal, kept

binding result (Rio2 (untagged)): binds
B5: (MBP-)Dim1 (enzyme, S. cerevisiae, UniProt P41819 1-318, looked up)
chain: MGKAAKKKYSGATSSKQVSAEKHLSSVFKFNTDLGQHILKNPLVAQGIVDKAQIRPSDVVLEVGPGTGNLTVRILEQAKNVVAVEMDPRMAAELTKRVRGTPVEKKLEIMLGDFMKTELPYFDICISNTPYQISSPLVFKLINQPRPPRVSILMFQREFALRLLARPGDSLYCRLSANVQMWANVTHIMKVGKNNFRPPPQVESSVVRLEIKNPRPQVDYNEWDGLLRIVFVRKNRTISAGFKSTTVMDILEKNYKTFLAMNNEMVDDTKGSMHDVVKEKIDTVLKETDLGDKRAGKCDQNDFLRLLYAFHQVGIHFS
notes: Dim1, S. cerevisiae; gene amplified from genomic DNA with primers from the start codon to the stop codon, cloned between SfoI and HindIII of pSV272; source: E. coli Rosetta, purified (Ni-NTA, MonoS, gel filtration; no TEV protease); not shown: His6-MBP, N-terminal, kept

binding result ((MBP-)Rio2): binds
B6: Dim1 (untagged) (enzyme, S. cerevisiae, UniProt P41819 1-318, looked up)
chain: MGKAAKKKYSGATSSKQVSAEKHLSSVFKFNTDLGQHILKNPLVAQGIVDKAQIRPSDVVLEVGPGTGNLTVRILEQAKNVVAVEMDPRMAAELTKRVRGTPVEKKLEIMLGDFMKTELPYFDICISNTPYQISSPLVFKLINQPRPPRVSILMFQREFALRLLARPGDSLYCRLSANVQMWANVTHIMKVGKNNFRPPPQVESSVVRLEIKNPRPQVDYNEWDGLLRIVFVRKNRTISAGFKSTTVMDILEKNYKTFLAMNNEMVDDTKGSMHDVVKEKIDTVLKETDLGDKRAGKCDQNDFLRLLYAFHQVGIHFS
notes: Dim1, S. cerevisiae; gene amplified from genomic DNA with primers from the start codon to the stop codon, cloned between SfoI and HindIII of pSV272; also called methylase Dim1; source: E. coli Rosetta, purified (Ni-NTA, TEV cleavage, MonoS, gel filtration); not shown: His6-MBP, N-terminal, cleaved

Second part, the binder before the results:

Binder: B1
binding result ((MBP-)Enp1): binds

B2: (MBP-)Ltv1 (natural protein, S. cerevisiae, UniProt P34078 1-463, looked up)
chain: MSKKFSSKNSQRYVVVHRPHDDPSFYDTDASAHVLVPVSNPNKTSPEADLRKKDVSSTKPKGRRAHVGEAALYGINFDDSEYDYTQHLKPIGLDPENSIFIASKGNEQKVEKKNIEDLFIEPKYRRDEIEKDDALPVFQRGMAKPEYLLHQQDTTDEIRGFKPDMNPALREVLEALEDEAYVVNDDVVVEDISKKTQLQGDNYGEEEKEDDIFAQLLGSGEAKDEDEFEDEFDEWDIDNVENFEDENYVKEMAQFDNIENLEDLENIDYQADVRRFQKDNSILEKHNSDDEFSNAGLDSVNPSEEEDVLGELPSIQDKSKTGKKKRKSRQKKGAMSDVSGFSMSSSAIARTETMTVLDDQYDQIINGYENYEEELEEDEEQNYQPFDMSAERSDFESMLDDFLDNYELESGGRKLAKKDKEIERLKEAADEVSKGKLSQRRNRERQEKKKLEKVTNTLSSLKF
notes: Ltv1, S. cerevisiae; gene amplified from genomic DNA with primers from the start codon to the stop codon, cloned between SfoI and BamHI of pSV272; source: E. coli Rosetta, purified (Ni-NTA, MonoQ, gel filtration; TEV protease omitted); not shown: His6-MBP, N-terminal, kept
binding result (Enp1 (untagged)): binds

Binder: B4
binding result ((MBP-)Tsr1): binds
